Measurements as given in PMC9352680, “A comprehensive thermodynamic model for RNA binding by the Saccharomyces cerevisiae Pumilio protein PUF4”.
Numbering of substitutions follows the chain as printed. Names may count otherwise.

T1: PUF4 RNA-binding domain (Saccharomyces cerevisiae, UniProt P25339 537-888)
T1 sequence: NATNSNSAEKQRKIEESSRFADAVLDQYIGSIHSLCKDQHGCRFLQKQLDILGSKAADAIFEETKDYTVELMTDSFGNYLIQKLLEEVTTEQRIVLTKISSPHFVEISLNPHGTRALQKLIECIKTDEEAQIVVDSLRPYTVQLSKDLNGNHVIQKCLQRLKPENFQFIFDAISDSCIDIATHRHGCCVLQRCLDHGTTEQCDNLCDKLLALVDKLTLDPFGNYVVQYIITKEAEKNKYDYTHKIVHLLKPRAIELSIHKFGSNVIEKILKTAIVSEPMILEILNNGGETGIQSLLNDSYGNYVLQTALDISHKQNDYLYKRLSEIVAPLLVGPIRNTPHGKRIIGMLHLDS

B1: Id_ii_S2_P5E.3_K5.2_C5.2_[C-2T]_[T-1C]_H5.2_A5.1_F5.1_T5.2_[T11C] (ssRNA)
RNA: UUUGAUUAAUAUGAUAUCGUUCUUUCUUCUAUAUUAUUACAUUCUUUCUCGAUAUCAUAUUAAUCUUU
B2: Id_ii_S2_P5E.3_K5.2_C5.2_[C-2A]_H5.2_A5.1_F5.1_T5.2_[A12C] (ssRNA)
RNA: B1 RNA with U28A, C29U, C40U, A41C
B3: Id_ii_S2_P5E.3_K5.2_C5.2_[C-2A]_[T-1C]_H5.2_A5.1_F5.1_T5.2_[T11A]_[A12C] (ssRNA)
RNA: B1 RNA with U28A, C40A, A41C
B4: Id_ii_S2_P5E.3_K5.2_C5.2_[C-2T]_[T-1C]_H5.2_A5.1_F5.1_T5.2_[T11A]_[A12C] (ssRNA)
RNA: B1 RNA with C40A, A41C
B5: Id_ii_S2_P5E.3_K5.2_C5.2_[C-2A]_H5.2_A5.1_F5.1_T5.2_[T11C] (ssRNA)
RNA: B1 RNA with U28A, C29U
B6: Id_ii_S2_P5E.3_K5.2_C5.2_[C-2T]_H5.2_A5.1_F5.1_T5.2_[T11C] (ssRNA)
RNA: B1 RNA with C29U
B7: Id_ii_S2_P5E.3_K5.2_C5.2_[C-2T]_[T-1A]_H5.2_A5.1_F5.1_T5.2_[T11C]_[A12G] (ssRNA)
RNA: B1 RNA with C29A, A41G
B8: Id_ii_S2_P5E.3_K5.2_C5.2_[C-2T]_[T-1A]_H5.2_A5.1_F5.1_T5.2_[T11G]_[A12C] (ssRNA)
RNA: B1 RNA with C29A, C40G, A41C
B9: Id_ii_S2_P5E.3_K5.2_C5.2_[C-2T]_[T-1A]_H5.2_A5.1_F5.1_T5.2_[T11A]_[A12C] (ssRNA)
RNA: B1 RNA with C29A, C40A, A41C
B10: Id_ii_S2_P5E.3_K5.2_C5.2_[C-2A]_H5.2_A5.1_F5.1_T5.2_[T11G]_[A12C] (ssRNA)
RNA: B1 RNA with U28A, C29U, C40G, A41C
B11: Id_ii_S2_P5E.3_K5.2_C5.2_[C-2T]_H5.2_A5.1_F5.1_T5.2_[T11G]_[A12C] (ssRNA)
RNA: B1 RNA with C29U, C40G, A41C
B12: Id_ii_S2_P5E.3_K5.2_C5.2_[C-2T]_[T-1A]_H5.2_A5.1_F5.1_T5.2_[A12C] (ssRNA)
RNA: B1 RNA with C29A, C40U, A41C
B13: Id_ii_S2_P5E.3_K5.2_C5.2_[C-2T]_[T-1A]_H5.2_A5.1_F5.1_T5.2_[T11C]_[A12T] (ssRNA)
RNA: B1 RNA with C29A, A41U
B14: Id_ii_S2_P5E.3_K5.2_C5.2_[C-2T]_[T-1A]_H5.2_A5.1_F5.1_T5.2_[A12T] (ssRNA)
RNA: B1 RNA with C29A, C40U, A41U
B15: Id_ii_S2_P5E.3_K5.2_C5.2_[C-2A]_[T-1A]_H5.2_A5.1_F5.1_T5.2_[T11C]_[A12C] (ssRNA)
RNA: B1 RNA with U28A, C29A, A41C
B16: Id_ii_S2_P5E.3_K5.2_C5.2_[C-2A]_[T-1C]_H5.2_A5.1_F5.1_T5.2_[T11C]_[A12T] (ssRNA)
RNA: B1 RNA with U28A, A41U
B17: Id_ii_S2_P5E.3_K5.2_C5.2_[C-2A]_[T-1C]_H5.2_A5.1_F5.1_T5.2_[T11C] (ssRNA)
RNA: B1 RNA with U28A
B18: Id_ii_S2_P5E.3_K5.2_C5.2_[C-2T]_[T-1C]_H5.2_A5.1_F5.1_T5.2_[T11A] (ssRNA)
RNA: B1 RNA with C40A
B19: Id_ii_S2_P5E.3_K5.2_C5.2_[C-2A]_[T-1A]_H5.2_A5.1_F5.1_T5.2_[T11C]_[A12G] (ssRNA)
RNA: B1 RNA with U28A, C29A, A41G
B20: Id_ii_S2_P5E.3_K5.2_C5.2_[T-1G]_H5.2_A5.1_F5.1_T5.2_[T11G]_[A12C] (ssRNA)
RNA: B1 RNA with U28C, C29G, C40G, A41C
B21: Id_ii_S2_P5E.3_K5.2_C5.2_[C-2T]_[T-1C]_H5.2_A5.1_F5.1_T5.2_[A12T] (ssRNA)
RNA: B1 RNA with C40U, A41U
B22: Id_ii_S2_P5E.3_K5.2_C5.2_[C-2T]_[T-1C]_H5.2_A5.1_F5.1_T5.2_[T11A]_[A12G] (ssRNA)
RNA: B1 RNA with C40A, A41G
B23: Id_ii_S2_P5E.3_K5.2_C5.2_[C-2A]_H5.2_A5.1_F5.1_T5.2_[T11C]_[A12C] (ssRNA)
RNA: B1 RNA with U28A, C29U, A41C
B24: Id_ii_S2_P5E.3_K5.2_C5.2_[C-2T]_[T-1A]_H5.2_A5.1_F5.1_T5.2_[T11C] (ssRNA)
RNA: B1 RNA with C29A
B25: Id_ii_S2_P5E.3_K5.2_C5.2_[C-2A]_H5.2_A5.1_F5.1_T5.2_[T11C]_[A12G] (ssRNA)
RNA: B1 RNA with U28A, C29U, A41G
B26: Id_ii_S2_P5E.3_K5.2_C5.2_[C-2A]_[T-1C]_H5.2_A5.1_F5.1_T5.2_[T11A] (ssRNA)
RNA: B1 RNA with U28A, C40A
B27: Id_ii_S2_P5E.3_K5.2_C5.2_[C-2A]_[T-1A]_H5.2_A5.1_F5.1_T5.2_[T11C] (ssRNA)
RNA: B1 RNA with U28A, C29A
B28: Id_ii_S2_P5E.3_K5.2_C5.2_[C-2A]_H5.2_A5.1_F5.1_T5.2_[T11C]_[A12T] (ssRNA)
RNA: B1 RNA with U28A, C29U, A41U
B29: Id_ii_S2_P5E.3_K5.2_C5.2_[C-2T]_H5.2_A5.1_F5.1_T5.2_[T11C]_[A12C] (ssRNA)
RNA: B1 RNA with C29U, A41C
B30: Id_ii_S2_P5E.3_K5.2_C5.2_[C-2A]_[T-1C]_H5.2_A5.1_F5.1_T5.2_[A12T] (ssRNA)
RNA: B1 RNA with U28A, C40U, A41U
B31: Id_ii_S2_P5E.3_K5.2_C5.2_[C-2T]_H5.2_A5.1_F5.1_T5.2_[T11G]_[A12T] (ssRNA)
RNA: B1 RNA with C29U, C40G, A41U
B32: Id_ii_S2_P5E.3_K5.2_C5.2_[C-2T]_H5.2_A5.1_F5.1_T5.2_[T11C]_[A12G] (ssRNA)
RNA: B1 RNA with C29U, A41G
B33: Id_ii_S2_P5E.3_K5.2_C5.2_[C-2T]_H5.2_A5.1_F5.1_T5.2_[A12T] (ssRNA)
RNA: B1 RNA with C29U, C40U, A41U
B34: Id_ii_S2_P5E.3_K5.2_C5.2_[C-2T]_[T-1C]_H5.2_A5.1_F5.1_T5.2_[T11A]_[A12T] (ssRNA)
RNA: B1 RNA with C40A, A41U
B35: Id_ii_S2_P5E.3_K5.2_C5.2_[C-2A]_[T-1C]_H5.2_A5.1_F5.1_T5.2_[T11A]_[A12T] (ssRNA)
RNA: B1 RNA with U28A, C40A, A41U
B36: Id_ii_S2_P5E.3_K5.2_C5.2_[C-2T]_H5.2_A5.1_F5.1_T5.2_[T11A]_[A12T] (ssRNA)
RNA: B1 RNA with C29U, C40A, A41U
B37: Id_ii_S2_P5E.3_K5.2_C5.2_[C-2A]_H5.2_A5.1_F5.1_T5.2_[A12T] (ssRNA)
RNA: B1 RNA with U28A, C29U, C40U, A41U
B38: Id_ii_S2_P5E.3_K5.2_C5.2_[C-2T]_H5.2_A5.1_F5.1_T5.2_[A12C] (ssRNA)
RNA: B1 RNA with C29U, C40U, A41C
B39: Id_ii_S2_P5E.3_K5.2_C5.2_[C-2T]_[T-1A]_H5.2_A5.1_F5.1_T5.2_[T11G]_[A12T] (ssRNA)
RNA: B1 RNA with C29A, C40G, A41U
B40: Id_ii_S2_P5E.3_K5.2_C5.2_[C-2T]_[T-1A]_H5.2_A5.1_F5.1_T5.2_[T11A] (ssRNA)
RNA: B1 RNA with C29A, C40A
B41: Id_ii_S2_P5E.3_K5.2_C5.2_[C-2T]_[T-1A]_H5.2_A5.1_F5.1_T5.2_[T11A]_[A12T] (ssRNA)
RNA: B1 RNA with C29A, C40A, A41U

Molecular target: T1, PUF4 RNA-binding domain
Experiment: Mg; RNA-MaP; 20 mM Na-HEPES pH 7.4, 30 mM KOAc, 0.75 mM MgCl2, 0.1% Tween-20, 5% glycerol, 0.1 mg/mL BSA, 2 mM DTT; 25 C; 0.0125-409.6 nM protein
Conditions: tags: N-His6-TEV cleaved; C-SNAP kept, Cy3B-labelled; label: tethered on chip by stalled RNA polymerase

Going from UCUCUUUGUAUUUCUAUCUCUU (ssRNA) [Ib_S1_P5E.1_K5.1_C5.1_H5.1_A5.1_[A7T]_F5.1_[T8C]_T5.1] to UCUCUUUGUAUUCCUAUCUCUU (ssRNA) [Ib_S1_P5E.1_K5.1_C5.1_H5.1_A5.1_[A7C]_F5.1_[T8C]_T5.1], the Kd rises from 6.46 nM to 17.5 nM (2.7-fold). The first binds more tightly here.

B1 and B2 are within 1.5-fold of each other in Kd: 179 nM for the first, 122 nM for the second.

B3 and B4 are within 1.5-fold of each other in Kd: 102 nM for the first, 94.7 nM for the second.

Going from B5 to B6, the Kd falls from 207 nM to 131 nM (1.6-fold). The second binds more tightly here.

B7 and B8 are within 1.5-fold of each other in Kd: 19.5 nM for the first, 13.9 nM for the second.

Compared with B9, B10 is 82-fold higher in Kd: 9.27 nM for the first, 762 nM for the second. The first binds more tightly here.

Going from B11 to B12, the Kd falls from 219 nM to 10.7 nM (20-fold).

Compared with B13, B14 is 2.8-fold higher in Kd: 6.8 nM for the first, 19.2 nM for the second. The first binds more tightly here.

Going from B15 to B16, the Kd falls from 504 nM to 98.6 nM (5.1-fold).

B17 and B18 are within 1.5-fold of each other in Kd: 162 nM for the first, 220 nM for the second.

Going from B19 to B20, the Kd falls from > 2300 nM to 28.1 nM.

Going from B21 to B22, the Kd rises from 80.1 nM to > 2300 nM. The first binds more tightly here.

First: B23
Second: B24
The Kd of the first is 9.8-fold higher: 142 nM for the first, 14.5 nM for the second. The second binds more tightly here.

B25 and B26 are within 1.5-fold of each other in Kd: 229 nM for the first, 319 nM for the second.

First: B27
Second: B28
The Kd of the first is 6.9-fold higher: 672 nM for the first, 97.6 nM for the second.

Compared with B29, B30 is 2.6-fold higher in Kd: 66.4 nM for the first, 174 nM for the second.

Compared with B31, B32 is 2.9-fold lower in Kd: 442 nM for the first, 152 nM for the second.

B33 and B34 are within 1.5-fold of each other in Kd: 130 nM for the first, 149 nM for the second.

Going from B35 to B36, the Kd rises from 207 nM to 374 nM (1.8-fold). The first binds more tightly here.

Compared with B37, B38 is 1.7-fold lower in Kd: 269 nM for the first, 156 nM for the second. The second binds more tightly here.

First: B39
Second: B40
The Kd of the first is 1.8-fold higher: 41.6 nM for the first, 22.6 nM for the second.

B41 and UCUCUUUGUAUUGCUAUCUCUU (ssRNA) [Ib_S1_P5E.1_K5.1_C5.1_H5.1_A5.1_[A7G]_F5.1_[T8C]_T5.1] are within 1.5-fold of each other in Kd: 21 nM for the first, 15.4 nM for the second.

Work on UCUCUUUGUAUUUGUAUCUCUU (ssRNA) [Ib_S1_P5E.1_K5.1_C5.1_H5.1_A5.1_[A7T]_F5.1_[T8G]_T5.1] yielded a Kd of 10.1 nM.
